According to US20140363428A1 (Chugai, published 2014):

Target: T1, soluble human FcRn (human, UniProt P55899 24-297; P61769 21-119)
T1 construct: Heterodimer of FcRn alpha chain and beta2-microglobulin; also called hFcRn
Assay: SPR (Biacore T100), antibody captured by protein L, hFcRn as analyte, pH 7.0, 25 C;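 note: KD calculated from fitted association and dissociation rate constants of the sensorgrams, protein L amine-coupled to the sensor chip, sodium phosphate running buffer with NaCl and Tween20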

Kd [nM]	Binder
210	IgG1-F1191 (antibody, EU numbering; copies: 2 + 2) heavy: QVQLQESGPGLVKPSETLSLTCAVSGHSISHDHAWSWVRQPPGEGLEWIGFISYSGITNYNPSLQGRVTISRDNSKNTLYLQMNSLRAEDTAVYYCARSLARTTAMDYWGEGTLVTVSSASTKGPSVFPLAPSSKSTSGGTAALGCLVKDYFPEPVTVSWNSGALTSGVHTFPAVLQSSGLYSLSSVVTVPSSSLGTQTYICNVNHKPSNTKVDKKVEPKSCDKTHTCPPCPAPELLGGPSVFLFPPKPKDTLYISRTPEVTCVVVDVSHEDPEVKFNWYVDGVEVHNAKTKPREEQYNSTYRVVSVLTVLHQDWLNGKEYKCKVSNKALPAPIEKTISKAKGQPREPQVYTLPPSRDELTKNQVSLTCLVKGFYPSDIAVEWESNGQPENNYKTTPPVLDSDGSFFLYSKLTVDKSRWQQGNVFSCSVMHEALHYHVARKELSLSP light: not shown
160	IgG1-F1194 (antibody, EU numbering; copies: 2 + 2) heavy: QVQLQESGPGLVKPSETLSLTCAVSGHSISHDHAWSWVRQPPGEGLEWIGFISYSGITNYNPSLQGRVTISRDNSKNTLYLQMNSLRAEDTAVYYCARSLARTTAMDYWGEGTLVTVSSASTKGPSVFPLAPSSKSTSGGTAALGCLVKDYFPEPVTVSWNSGALTSGVHTFPAVLQSSGLYSLSSVVTVPSSSLGTQTYICNVNHKPSNTKVDKKVEPKSCDKTHTCPPCPAPELLGGPSVFLFPPKPKDTLYISRTPEVTCVVVDVSHEDPEVKFNWYVDGVEVHNAKTKPREEQYNSTYRVVSVLTVLHQDWLNGKEYKCKVSNKALPAPIEKTISKAKGQPREPQVYTLPPSRDELTKNQVSLTCLVKGFYPSDIAVEWESNGQPENNYKTTPPVLDSDGSFFLYSKLTVDKSRWQQGNVFSCSVMHEALHYHVTRDELSLSP light: not shown
150	IgG1-F1203 (antibody, EU numbering; copies: 2 + 2) heavy: QVQLQESGPGLVKPSETLSLTCAVSGHSISHDHAWSWVRQPPGEGLEWIGFISYSGITNYNPSLQGRVTISRDNSKNTLYLQMNSLRAEDTAVYYCARSLARTTAMDYWGEGTLVTVSSASTKGPSVFPLAPSSKSTSGGTAALGCLVKDYFPEPVTVSWNSGALTSGVHTFPAVLQSSGLYSLSSVVTVPSSSLGTQTYICNVNHKPSNTKVDKKVEPKSCDKTHTCPPCPAPELLGGPSVFLFPPKPKDTLYISRQPEVTCVVVDVSHEDPEVKFNWYVDGVEVHNAKTKPREEQYNSTYRVVSVLTVLHQDWLNGKEYKCKVSNKALPAPIEKTISKAKGQPREPQVYTLPPSRDELTKNQVSLTCLVKGFYPSDIAVEWESNGQPENNYKTTPPVLDSDGSFFLYSKLTVDKSRWQQGNVFSCSVMHEALHYHVTRKELSLSP light: not shown
130	IgG1-F1192 (antibody, EU numbering; copies: 2 + 2) heavy: QVQLQESGPGLVKPSETLSLTCAVSGHSISHDHAWSWVRQPPGEGLEWIGFISYSGITNYNPSLQGRVTISRDNSKNTLYLQMNSLRAEDTAVYYCARSLARTTAMDYWGEGTLVTVSSASTKGPSVFPLAPSSKSTSGGTAALGCLVKDYFPEPVTVSWNSGALTSGVHTFPAVLQSSGLYSLSSVVTVPSSSLGTQTYICNVNHKPSNTKVDKKVEPKSCDKTHTCPPCPAPELLGGPSVFLFPPKPKDTLYISRTPEVTCVVVDVSHEDPEVKFNWYVDGVEVHNAKTKPREEQYNSTYRVVSVLTVLHQDWLNGKEYKCKVSNKALPAPIEKTISKAKGQPREPQVYTLPPSRDELTKNQVSLTCLVKGFYPSDIAVEWESNGQPENNYKTTPPVLDSDGSFFLYSKLTVDKSRWQQGNVFSCSVMHEALHYHVGRKELSLSP light: not shown
180	IgG1-F1195 (antibody, EU numbering; copies: 2 + 2) heavy: QVQLQESGPGLVKPSETLSLTCAVSGHSISHDHAWSWVRQPPGEGLEWIGFISYSGITNYNPSLQGRVTISRDNSKNTLYLQMNSLRAEDTAVYYCARSLARTTAMDYWGEGTLVTVSSASTKGPSVFPLAPSSKSTSGGTAALGCLVKDYFPEPVTVSWNSGALTSGVHTFPAVLQSSGLYSLSSVVTVPSSSLGTQTYICNVNHKPSNTKVDKKVEPKSCDKTHTCPPCPAPELLGGPSVFLFPPKPKDTLYISRTPEVTCVVVDVSHEDPEVKFNWYVDGVEVHNAKTKPREEQYNSTYRVVSVLTVLHQDWLNGKEYKCKVSNKALPAPIEKTISKAKGQPREPQVYTLPPSRDELTKNQVSLTCLVKGFYPSDIAVEWESNGQPENNYKTTPPVLDSDGSFFLYSKLTVDKSRWQQGNVFSCSVMHEALHYHVTRKEASLSP light: not shown
88	IgG1-F1202 (antibody, EU numbering; copies: 2 + 2) heavy: QVQLQESGPGLVKPSETLSLTCAVSGHSISHDHAWSWVRQPPGEGLEWIGFISYSGITNYNPSLQGRVTISRDNSKNTLYLQMNSLRAEDTAVYYCARSLARTTAMDYWGEGTLVTVSSASTKGPSVFPLAPSSKSTSGGTAALGCLVKDYFPEPVTVSWNSGALTSGVHTFPAVLQSSGLYSLSSVVTVPSSSLGTQTYICNVNHKPSNTKVDKKVEPKSCDKTHTCPPCPAPELLGGPSVFLFPPKPKDVLYITREPEVTCVVVDVSHEDPEVKFNWYVDGVEVHNAKTKPREEQYNSTYRVVSVLTVLHQDWLNGKEYKCKVSNKALPAPIEKTISKAKGQPREPQVYTLPPSRDELTKNQVSLTCLVKGFYPSDIAVEWESNGQPENNYKTTPPVLDSDGSFFLYSKLTVDKSRWQQGNVFSCSVMHEALHYHVTRKELSLSP light: not shown
95	IgG1-F1197 (antibody, EU numbering; copies: 2 + 2) heavy: QVQLQESGPGLVKPSETLSLTCAVSGHSISHDHAWSWVRQPPGEGLEWIGFISYSGITNYNPSLQGRVTISRDNSKNTLYLQMNSLRAEDTAVYYCARSLARTTAMDYWGEGTLVTVSSASTKGPSVFPLAPSSKSTSGGTAALGCLVKDYFPEPVTVSWNSGALTSGVHTFPAVLQSSGLYSLSSVVTVPSSSLGTQTYICNVNHKPSNTKVDKKVEPKSCDKTHTCPPCPAPELLGGPSVFLFPPKPKDTLYITRTPEVTCVVVDVSHEDPEVKFNWYVDGVEVHNAKTKPREEQYNSTYRVVSVLTVLHQDWLNGKEYKCKVSNKALPAPIEKTISKAKGQPREPQVYTLPPSRDELTKNQVSLTCLVKGFYPSDIAVEWESNGQPENNYKTTPPVLDSDGSFFLYSKLTVDKSRWQQGNVFSCSVMHEALHYHVTRKELSLSP light: not shown
110	IgG1-F1201 (antibody, EU numbering; copies: 2 + 2) heavy: QVQLQESGPGLVKPSETLSLTCAVSGHSISHDHAWSWVRQPPGEGLEWIGFISYSGITNYNPSLQGRVTISRDNSKNTLYLQMNSLRAEDTAVYYCARSLARTTAMDYWGEGTLVTVSSASTKGPSVFPLAPSSKSTSGGTAALGCLVKDYFPEPVTVSWNSGALTSGVHTFPAVLQSSGLYSLSSVVTVPSSSLGTQTYICNVNHKPSNTKVDKKVEPKSCDKTHTCPPCPAPELLGGPSVFLFPPKPKDVLYISREPEVTCVVVDVSHEDPEVKFNWYVDGVEVHNAKTKPREEQYNSTYRVVSVLTVLHQDWLNGKEYKCKVSNKALPAPIEKTISKAKGQPREPQVYTLPPSRDELTKNQVSLTCLVKGFYPSDIAVEWESNGQPENNYKTTPPVLDSDGSFFLYSKLTVDKSRWQQGNVFSCSVMHEALHYHVTRKELSLSP light: not shown
78	IgG1-F1198 (antibody, EU numbering; copies: 2 + 2) heavy: QVQLQESGPGLVKPSETLSLTCAVSGHSISHDHAWSWVRQPPGEGLEWIGFISYSGITNYNPSLQGRVTISRDNSKNTLYLQMNSLRAEDTAVYYCARSLARTTAMDYWGEGTLVTVSSASTKGPSVFPLAPSSKSTSGGTAALGCLVKDYFPEPVTVSWNSGALTSGVHTFPAVLQSSGLYSLSSVVTVPSSSLGTQTYICNVNHKPSNTKVDKKVEPKSCDKTHTCPPCPAPELLGGPSVFLFPPKPKDTLYISREPEVTCVVVDVSHEDPEVKFNWYVDGVEVHNAKTKPREEQYNSTYRVVSVLTVLHQDWLNGKEYKCKVSNKALPAPIEKTISKAKGQPREPQVYTLPPSRDELTKNQVSLTCLVKGFYPSDIAVEWESNGQPENNYKTTPPVLDSDGSFFLYSKLTVDKSRWQQGNVFSCSVMHEALHYHVTRKELSLSP light: not shown
150	IgG1-F1196 (antibody, EU numbering; copies: 2 + 2) heavy: QVQLQESGPGLVKPSETLSLTCAVSGHSISHDHAWSWVRQPPGEGLEWIGFISYSGITNYNPSLQGRVTISRDNSKNTLYLQMNSLRAEDTAVYYCARSLARTTAMDYWGEGTLVTVSSASTKGPSVFPLAPSSKSTSGGTAALGCLVKDYFPEPVTVSWNSGALTSGVHTFPAVLQSSGLYSLSSVVTVPSSSLGTQTYICNVNHKPSNTKVDKKVEPKSCDKTHTCPPCPAPELLGGPSVFLFPPKPKDTLYISRTPEVTCVVVDVSHEDPEVKFNWYVDGVEVHNAKTKPREEQYNSTYRVVSVLTVLHQDWLNGKEYKCKVSNKALPAPIEKTISKAKGQPREPQVYTLPPSRDELTKNQVSLTCLVKGFYPSDIAVEWESNGQPENNYKTTPPVLDSDGSFFLYSKLTVDKSRWQQGNVFSCSVMHEALHYHVTRKEESLSP light: not shown
62	IgG1-F1199 (antibody, EU numbering; copies: 2 + 2) heavy: QVQLQESGPGLVKPSETLSLTCAVSGHSISHDHAWSWVRQPPGEGLEWIGFISYSGITNYNPSLQGRVTISRDNSKNTLYLQMNSLRAEDTAVYYCARSLARTTAMDYWGEGTLVTVSSASTKGPSVFPLAPSSKSTSGGTAALGCLVKDYFPEPVTVSWNSGALTSGVHTFPAVLQSSGLYSLSSVVTVPSSSLGTQTYICNVNHKPSNTKVDKKVEPKSCDKTHTCPPCPAPELLGGPSVFLFPPKPKDTLYITREPEVTCVVVDVSHEDPEVKFNWYVDGVEVHNAKTKPREEQYNSTYRVVSVLTVLHQDWLNGKEYKCKVSNKALPAPIEKTISKAKGQPREPQVYTLPPSRDELTKNQVSLTCLVKGFYPSDIAVEWESNGQPENNYKTTPPVLDSDGSFFLYSKLTVDKSRWQQGNVFSCSVMHEALHYHVTRKELSLSP light: not shown
130	IgG1-F1200 (antibody, EU numbering; copies: 2 + 2) heavy: QVQLQESGPGLVKPSETLSLTCAVSGHSISHDHAWSWVRQPPGEGLEWIGFISYSGITNYNPSLQGRVTISRDNSKNTLYLQMNSLRAEDTAVYYCARSLARTTAMDYWGEGTLVTVSSASTKGPSVFPLAPSSKSTSGGTAALGCLVKDYFPEPVTVSWNSGALTSGVHTFPAVLQSSGLYSLSSVVTVPSSSLGTQTYICNVNHKPSNTKVDKKVEPKSCDKTHTCPPCPAPELLGGPSVFLFPPKPKDVLYITRTPEVTCVVVDVSHEDPEVKFNWYVDGVEVHNAKTKPREEQYNSTYRVVSVLTVLHQDWLNGKEYKCKVSNKALPAPIEKTISKAKGQPREPQVYTLPPSRDELTKNQVSLTCLVKGFYPSDIAVEWESNGQPENNYKTTPPVLDSDGSFFLYSKLTVDKSRWQQGNVFSCSVMHEALHYHVTRKELSLSP light: not shown
